Experimental data from patent US20020004214A1, “Method to detect modulators of histidine kinases” (priority 1999, published 2002).

Legend:
MalE-EspB fusion protein = test: EspB autophosphorylation gel electrophoresis assay; assay type: biochemical, Staphylococcus aureus; settings: purified protein pretreated with 2 M or 0.5 M guanidine-HCl, then dialyzed; [γ-32P]ATP 30 minutes; vs protein not pretreated
Procedure: Enzyme autophosphorylation activity was assayed as described in Example 4 below. Samples containing equal amounts of purified MalE-EspB fusion that had either been treated or not with guanidine-HCl were incubated with [γ-^32P]ATP for 30 minutes, analyzed by polyacrylamide gel electrophoresis, and exposed to X-ray film. In FIG. 3 the bands show the autophosphorylated protein, and can be quantitated. Lanes 1 and 2 show the activity of purified protein samples that had not been pretreated with guanidine-HCl, whereas the protein samples inlanes 3 and 4 had been pretreated with 2 M and 0.5 M guanidine-HCl, respectively, and dialyzed afterwards against enzyme storage buffer. When the X-ray picture is greatly overexposed, the protein bands become also apparent on lanes 1 and 2. The experiment showes that pretreatment with guanidine-HCl activates MalE-EspB by approximately 40 to 100-fold, a likely consequence of denaturing and then refolding the purified MalE-EspB protein.
Volumes of 18.5 μl of compounds diluted in 6% DMSO or controls of 6% DMSO alone were mixed in a microcentrifuge tube with an equal volume of EspB reaction mixture (containing EspB at 0.58 mg/ml in a salt buffer of 328 mM Tris-HCl [pH 8.0], 225 mM KCl, 0.4 mM PMSF {phenylmethylsulfonyl fluoride}, 1.2 mM DTT, 0.2 mM EDTA, 9.3 mM MnCl2, and 10% glycerol). […]

[1] = target: T1, EspA cognate response regulator (UniProt Q5HJX7)
T1 sequence: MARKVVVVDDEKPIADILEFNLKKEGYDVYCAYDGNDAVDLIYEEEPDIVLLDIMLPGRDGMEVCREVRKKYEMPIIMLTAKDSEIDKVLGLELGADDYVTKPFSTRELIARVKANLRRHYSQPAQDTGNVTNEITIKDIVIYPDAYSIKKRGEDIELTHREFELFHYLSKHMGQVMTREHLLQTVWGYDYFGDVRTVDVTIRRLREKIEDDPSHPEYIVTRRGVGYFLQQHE

| Compound | activation of MalE-EspB autophosphorylation activity by pretreatment (MalE-EspB fusion protein) [fold] | transphosphorylation of EspA by EspB without Ca++, [gamma-32P]ATP, SDS-PAGE and X-ray film [1] | transphosphorylation of EspA by EspB, [gamma-32P]ATP, SDS-PAGE and X-ray film [1] |
| --- | --- | --- | --- |
| Cl.N=C(N)N [guanidine-HCl, Guanidine-HCl] | 40 to 100 |  |  |
| MalE-EspB fusion protein |  | this transphosphorylation requires the presence of Ca^++ whereas autophosphorylation of EspB does not (absence of the EspA band in lane 5) | EspA is unable to autophosphorylate (lane 3), but that it can be transphosphorylated by its cognate HPK EspB (lane 2) |
